Experimental data as given in article doi:10.1101/2023.02.21.529347v1.

B1: MSMEG_2027 (Mycolicibacterium smegmatis MC2 155) (protein)
chain: MTDAELSPTDWVREQTERILEQGTTDGVHVLDRPIVLFTTTGAKSGKKRYVPLMRVEENGKYAMVASKGGDPKHPSWYFNVKANPTVSVQDGDKVLPDRTARELEGEEREHWWKLAVEAYPPYAEYQTKTDRLIPVFIVE
B2: MSMEG_2850 (Mycolicibacterium smegmatis MC2 155) (protein)
chain: MTEAIDWDQMNNQVIKEFRETGGKAGGLFEGSPLVLVHHTGAKSGKQRIAPLVPLLDGDRIYIFGSKGGADSHPDWYHNLVANPDTVVELGTETFPVKARVLTGAERDEIYAKQVAVAPQFGDYQRKTTRVIPVVELQRV

Legend:
Assay in all cases: purified protein
[1] = substrate: C=C(C)[C@@H]1CC=C(C)C(=O)C1; details: co-substrate F420H2; apparent value
[2] = substrate: C=C(C)[C@H]1CC=C(C)C(=O)C1; details: co-substrate F420H2; apparent value
[3] = substrate: CC1(C)[C@H]2CC=C(C=O)[C@@H]1C2; details: co-substrate F420H2; apparent value
[4] = substrate: CC1=CC(=O)CC(C)(C)C1=O; details: co-substrate F420H2; apparent value; fit with substrate inhibition
[5] = substrate: CC1=CC(=O)CC1; details: co-substrate F420H2; apparent value
[6] = substrate: CC1=CC(=O)CCC1; details: co-substrate F420H2, apparent value
[7] = substrate: CC1=CCCC1=O; details: co-substrate F420H2; apparent value
[8] = substrate: CC1=CCCCC1=O; details: co-substrate F420H2; apparent value

Protein	Km [1]	kcat [1]	Km [2]	kcat [2]	Km [3]	kcat [3]	Km [4]	kcat [4]	Km [5]	kcat [5]	Km [6]	kcat [6]	Km [7]	kcat [7]	Km [8]	kcat [8]	Km ([6]; fit with substrate inhibition)	kcat ([6]; fit with substrate inhibition)
B1	1290 ± 320 µM	0.11 ± 0.008 s⁻¹	1300 ± 280 µM	0.09 ± 0.006 s⁻¹	310 ± 30 µM	0.74 ± 0.017 s⁻¹	3880 ± 680 µM	0.39 ± 0.05 s⁻¹	120 ± 50 µM	0.01 ± 0.001 s⁻¹	4290 ± 3460 µM	1.10 ± 0.41 s⁻¹	1000 ± 130 µM	0.55 ± 0.02 s⁻¹	2560 ± 480 µM	0.62 ± 0.05 s⁻¹		
B2	1620 ± 180 µM	0.08 ± 0.003 s⁻¹	2070 ± 390 µM	0.05 ± 0.004 s⁻¹	580 ± 70 µM	0.16 ± 0.005 s⁻¹	100 ± 8 µM	1.35 ± 0.028 s⁻¹	4300 ± 740 µM	0.10 ± 0.008 s⁻¹			7670 ± 3210 µM	0.16 ± 0.04 s⁻¹	9180 ± 2220 µM	1.59 ± 0.23 s⁻¹	6730 ± 6840 µM	4.02 ± 3.30 s⁻¹
